± gives the uncertainty stated by the source.
Test: self-splicing fitness, log relative to wild type (ln ratio); higher = more splicing; Tetrahymena group I intron in knt gene, E. coli kanamycin selection, DiMSum; sequences stand for … in CUCUCU…GGAGGGAAAAGUUAUCAGGCAUGCACCUGGUAGCUAGUCUUUAAACCAAUAGAUUGCAUCGGUUUAAAAGGCAAGACCGUCAAAUUGCGGGAAAGGGGUCAACAGCCGUUCAGUACCAAGUCUCAGGGGAAACUUUGAGAUGGCCUUGCAAAGGGUAUGGUAAUAAGCUGACGGACAUGGUCCUAACCACGCAGCCAAGUCCUAAGUCAACAGAUCUUCUGUUGAUAUGGAUGCAGUUCACAGACUAAAUGUCGGUCGGGGAAGAUGUAUUCUUCUCAUAAGAUAUAGUCGGACCUCUCCUUAAUGGGAGCUAGCGGAUGAAGUGAUGCAACACUGGAGCCGCUGGGAACUAAUUUGUAUGCGAAAGUAUAUUGAUUAGUUUUGGAGUACUCGUGGUCG
In short: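 Library with all eight P1ex-region intron nucleotides randomised, intron inside the knt kanamycin-resistance gene on pET-22b(+), in E. coli BL21(DE3). Cells grew overnight at 37°C or 30°C on LB agar with or without 25 μg/mL kanamycin (plus 100 μg/mL carbenicillin, 50 μM IPTG, 0.2% rhamnose), in six replicate transformations. Pooled colonies were amplicon-sequenced on Illumina HiSeq 2500. DiMSum fitness is the error-weighted combination of wild-type-normalised replicate fold changes, kanamycin versus none.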

Row | Sequence | self-splicing fitness (ln) (30 °C) | self-splicing fitness (ln) (37 °C)
1 | UGACAGCAAUAUUACGGAUG | -0.91 ± 0.054 | -0.91 ± 0.075
2 | UGACAGCAAUAUUACGGCCG | -0.739 ± 0.14 | 0.186 ± 0.19
3 | UGACAGCAAUAUUACGGCGG | -0.935 ± 0.053 | 0.0557 ± 0.072
4 | UGACAGCAAUAUUACGGUCG | -3.56 ± 0.26 | -1.58 ± 0.21
5 | UGACAGCAAUAUUACGGUGC | -2.01 ± 0.49 | –
6 | UGACAGCAAUAUUACGGUGG | -1.56 ± 0.064 | -0.331 ± 0.082
7 | UGACAGCAAUAUUACGGUUU | -1.07 ± 0.059 | -0.226 ± 0.073
8 | UGACAGCAAUAUUACGUAGG | -1.78 ± 0.079 | -1.31 ± 0.11
9 | UGACAGCAAUAUUACGUCGG | -1.72 ± 0.094 | -0.734 ± 0.11
10 | UGACAGCAAUAUUACGUGGG | -3.76 ± 0.14 | -0.757 ± 0.081
11 | UGACAGCAAUAUUACGUUGA | -1.99 ± 0.094 | -1.9 ± 0.12
12 | UGAGAGCAAUAUUACGAACG | -1.02 ± 0.18 | -1.43 ± 0.33
13 | UGAGAGCAAUAUUACGAAUA | -2.76 ± 0.49 | –
14 | UGAGAGCAAUAUUACGAUAC | -3.92 ± 0.46 | -1.91 ± 0.34
15 | UGAGAGCAAUAUUACGAUGC | -2.13 ± 0.39 | -0.477 ± 0.45
16 | UGAGAGCAAUAUUACGCCAC | -2.36 ± 0.31 | -1.1 ± 0.42
17 | UGAGAGCAAUAUUACGCCGC | -3.41 ± 0.23 | -2.5 ± 0.31
18 | UGAGAGCAAUAUUACGCGUC | -2.95 ± 0.38 | -1.37 ± 0.41
19 | UGAGAGCAAUAUUACGGAUG | -3.61 ± 0.19 | -3.56 ± 0.29
20 | UGAGAGCAAUAUUACGGCAG | – | -1.58 ± 0.31
21 | UGAGAGCAAUAUUACGGCUG | -1.5 ± 0.15 | -0.389 ± 0.26
22 | UGAGAGCAAUAUUACGGGGU | – | -2.4 ± 0.48
23 | UGAGAGCAAUAUUACGGUUG | -2.6 ± 0.12 | -2.64 ± 0.19
24 | UGAGAGCAAUAUUACGUAUC | -0.611 ± 0.42 | -0.408 ± 0.47
25 | UGAGAGCAAUAUUACGUCAC | -2.08 ± 0.4 | –
26 | UGAGAGCAAUAUUACGUGCU | -2.06 ± 0.21 | –

Row | Sequence | self-splicing fitness (ln) (30 °C) | self-splicing fitness (ln) (37 °C)
27 | UGAGAGCAAUAUUACGUUGA | – | -2.55 ± 0.24
28 | UGAGAGCAAUAUUACGUUGG | – | -3 ± 0.27
29 | UGAUAGCAAUAUUACGAGUU | -3.82 ± 0.24 | -2.73 ± 0.21
30 | UGAUAGCAAUAUUACGAUCC | -0.554 ± 0.12 | 0.433 ± 0.15
31 | UGAUAGCAAUAUUACGAUUC | -2.33 ± 0.24 | -2.41 ± 0.49
32 | UGAUAGCAAUAUUACGCAUG | -1.23 ± 0.078 | -0.48 ± 0.1
33 | UGAUAGCAAUAUUACGCCUU | -3.11 ± 0.31 | -1.32 ± 0.2
34 | UGAUAGCAAUAUUACGCGAA | -2.64 ± 0.44 | -1.49 ± 0.26
35 | UGAUAGCAAUAUUACGCUCC | – | -0.916 ± 0.3
36 | UGAUAGCAAUAUUACGCUGU | -2.61 ± 0.27 | -3.08 ± 0.38
37 | UGAUAGCAAUAUUACGCUUU | -3.56 ± 0.47 | -1.39 ± 0.15
38 | UGAUAGCAAUAUUACGGACU | -1.17 ± 0.099 | 0.214 ± 0.18
39 | UGAUAGCAAUAUUACGGAGC | -3.26 ± 0.24 | -3.25 ± 0.47
40 | UGAUAGCAAUAUUACGGAGG | -2.79 ± 0.26 | -1.56 ± 0.36
41 | UGAUAGCAAUAUUACGGAUU | -2.78 ± 0.23 | -0.278 ± 0.19
42 | UGAUAGCAAUAUUACGGCGC | -2.62 ± 0.22 | -1.18 ± 0.23
43 | UGAUAGCAAUAUUACGGUGG | -2.08 ± 0.15 | -1.53 ± 0.25
44 | UGAUAGCAAUAUUACGUAGU | -4.18 ± 0.31 | -2.38 ± 0.28
45 | UGAUAGCAAUAUUACGUCAG | -1.84 ± 0.1 | -1.03 ± 0.12
46 | UGAUAGCAAUAUUACGUCCG | -0.219 ± 0.11 | -0.0349 ± 0.13
47 | UGAUAGCAAUAUUACGUCGU | -2.06 ± 0.34 | -2.02 ± 0.35
48 | UGAUAGCAAUAUUACGUUCU | -1.68 ± 0.11 | 0.264 ± 0.11
49 | UGCAAGCAAUAUUACGAUCA | 0.00924 ± 0.069 | 0.117 ± 0.077
50 | UGCAAGCAAUAUUACGAUUG | -1.93 ± 0.14 | -1.55 ± 0.12
51 | UGCAAGCAAUAUUACGCCCU | -0.189 ± 0.15 | 0.448 ± 0.14
52 | UGCAAGCAAUAUUACGCCUG | -2.3 ± 0.13 | -2.5 ± 0.25

Row | Sequence | self-splicing fitness (ln) (30 °C) | self-splicing fitness (ln) (37 °C)
53 | UGCAAGCAAUAUUACGCGCC | -1.18 ± 0.098 | -0.427 ± 0.11
54 | UGCAAGCAAUAUUACGCGUC | -1.63 ± 0.18 | -2.93 ± 0.26
55 | UGCAAGCAAUAUUACGCUAU | -2.7 ± 0.088 | -1.49 ± 0.088
56 | UGCAAGCAAUAUUACGCUCU | -0.965 ± 0.12 | -0.235 ± 0.13
57 | UGCAAGCAAUAUUACGGACA | -0.633 ± 0.12 | -0.0695 ± 0.16
58 | UGCAAGCAAUAUUACGGACU | -0.763 ± 0.077 | 0.286 ± 0.093
59 | UGCAAGCAAUAUUACGGCUC | -1.8 ± 0.11 | -1.01 ± 0.15
60 | UGCAAGCAAUAUUACGGCUU | – | -1.72 ± 0.28
61 | UGCAAGCAAUAUUACGUACA | -0.594 ± 0.062 | 0.366 ± 0.092
62 | UGCAAGCAAUAUUACGUAUU | -3.36 ± 0.37 | -2.08 ± 0.21
63 | UGCAAGCAAUAUUACGUCCA | -0.254 ± 0.047 | 0.213 ± 0.07
64 | UGCAAGCAAUAUUACGUGCC | -0.791 ± 0.092 | -1.12 ± 0.12
65 | UGCAAGCAAUAUUACGUUGG | -2.87 ± 0.12 | -2.22 ± 0.14
66 | UGCAAGCAAUAUUACGUUUU | -4.29 ± 0.16 | -3.33 ± 0.15
67 | UGCCAGCAAUAUUACGAAAA | -2 ± 0.17 | -1.24 ± 0.14
68 | UGCCAGCAAUAUUACGAAAU | -2.86 ± 0.2 | -1.81 ± 0.17
69 | UGCCAGCAAUAUUACGACCU | -2.35 ± 0.19 | -1.34 ± 0.17
70 | UGCCAGCAAUAUUACGAGUA | -1.49 ± 0.1 | 0.112 ± 0.11
71 | UGCCAGCAAUAUUACGAUAU | -4.12 ± 0.28 | -1.74 ± 0.16
72 | UGCCAGCAAUAUUACGAUCA | -0.629 ± 0.099 | 0.465 ± 0.13
73 | UGCCAGCAAUAUUACGCCGA | -2.56 ± 0.37 | -1.07 ± 0.18
74 | UGCCAGCAAUAUUACGCGUA | -1.13 ± 0.075 | -0.301 ± 0.083
75 | UGCCAGCAAUAUUACGCUAA | -0.447 ± 0.084 | 0.0253 ± 0.095
76 | UGCCAGCAAUAUUACGCUAU | -0.882 ± 0.16 | -1.13 ± 0.16
77 | UGCCAGCAAUAUUACGGACA | -0.325 ± 0.074 | -0.394 ± 0.09
78 | UGCCAGCAAUAUUACGGAUA | -1.27 ± 0.091 | -0.573 ± 0.1

Source: the supplement of paper PMC7877785
